The text below walks through data of the NTF2 design screens of Basanta et al. (2020).

This data set can be described thus: protease stability score; higher = more stable; yeast display proteolysis, trypsin and chymotrypsin.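 Also: relative to predicted unfolded state with 0 unfolded-like and 1 meaning tenfold more protease.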
For “HENEENETEAIRLFLRVMLTGDEHDLKRMFDPDMKVEIGDKRIVGRERVLEHWLHTAERFGLTNIYLQLDHVRVINGRVDIDFHVRFNGRTERVHLHILKINGKWIVEHLEVR”, the protease stability score stood at 1.36.

For the sequence “HENEHRMKEFVREVFDLRRTGNWEQLQELFDPNVRIEIGDKRYHGWENLSHFLLHARQDMHIEVTSVEVQGDKIIADGRLEYTLRVGDKDVTYDHRTIIIAHKFNGKWFFTTERIK”, the protease stability score was determined as 1.33.

Sequence “HEQDEAWDVINRDLAQSIETGDEHTERELLDPNVRIDFDGVKLHGRDEWHDFVRKELEHLGVDRIDIRIEIHNSKYQGEKVDSDTELKIRYGDKHVRIKTRLILHKIDGRWLVKSIQIN” yielded a protease stability score of 1.1.

For “HEQEKFVREYFELWVRAFLTGDEDTILDMMDPDVRIIYGDKTVVGWKELHKFLKRVDHARIKFEFRNTRYDENEAEVDGHRIVHLFFDGKIFDITTQIHVHMVKIDGVWTMKTIVNK”, the protease stability score came to 1.55.

Take “HEREEWSENAFRMILRSLMTGDERTLYELADPNVRLDVNGQDYHGREDFLHFYTHFLFRADHVELILRRERPVGDKLELDGELVSRVGDKTHHVEVRIVLWKVNGRWLIHSVYII”: the protease stability score worked out at 1.81.

In the case of “HEREHLLERMLKLLLELLLTGDEDTWKHYLDPHTRVIFNGREEHGRTAFERFVKELGVDHIEFKHVEIRHIGDKVHLHVDARVEINGRKHNMHLHIHLRKIDGQWEVKEFRIEIE”, the protease stability score turned out to be 1.27.

For the sequence “HERERMLEVALRLFIETMRTGDEKITSELADPNVKIHIGDKTDHGRESFTNFFEEMGADHVNVHDVEVQGDKVKTDIRIQIGDKMVESILYVKKVNGRWLIRSIEIR”, the protease stability score was found to be 1.05.

The sequence “HERQKEMETLVELFDEEWLTGNEQTHRRLADPHMKLDVNGKTYHGWKQYNKHLQDFLKRIDHVELEIKRIRVQGEYAHSDGTLRMHYNGVTEERNVHVEINIIDGRLKSVHLKVE” gave a protease stability score of 1.1.

Sequence “HESDKLVDEIFKTFIHAIVTGDEETLKTMLDPNTKFILIYGDKYHEHHGWRDLIRWLREIRIREIIHRHVENQGDKVHHEGELRGEFNGKEIRTEIHIHMVVVNGKLRRMEWEIK” came in with a protease stability score of 2.07.

For “HESEELAKHFSKIMDDLIRTGDEEHFDRLLDPNVKLDVNGRTIHGRERVSEIIHEKNKELGIDQIHVRKQDEHIIGDKLILHIEIIYGDKRIELIIITRKINGKWRIESVELREH”, the protease stability score came to 0.876.

“HESEEYAHRVSKDFDRAMRTGDWLRLLELIDPNARLHVGEFHVHGMEDIEKWIRHFLHRVDVIHIRVRDMRVQGEKVDVDYEIEERQGDKRRHYESRTIILKIDGKWHIKEIHIH” gave a protease stability score of 1.14.

“HESHEFVKEAFRLWVESLRTGDEKTLSRYADPHVRVTYDGREFHGRDWYVKLMDELRVNDVKLDDVNVQGEKIDIEGTIDGQVNGQDREIKVRLHAEKINGRWVNKKIQID” registered a protease stability score of 1.11.

On to “HESHNRVERILEEFFKAVETGDWRVLHELLDPHVRLDVDGRDHHGREDFSRFMKEIRVEEFRVTHLQIQGDKANVQSHRVGTYNGKRQEIRTWIHITKIDGQWYITEVTME”, for which the protease stability score turned out to be 0.544.

In turn, “HESQEHDDRILDLFETLLRTGDWERLFQLADPHVRLRLHYGDKEIHQVGREEVVRMFLWWRERFGVDHFEVHEVRVVDGVNHIDGRLTVNGRNRRTEIVFIVVNGRIKEFEVRHR” gave a protease stability score of 2.24.

In turn, “HESTEYADYMLKFLSLVESTGNEDLFKRLFDPDVRLVINGVDTHGWESYHEHRKRVDHKEVEHSEIKHVEVQGEKIIVHGILHVRVKIGDKRFSFEIRFHLIVHKFNGKWHITSIEFH” gave a protease stability score of 0.848.

“HETEKLTKEYIREELEVLKTGDEKETRELLDPDVRIEQGEFSTHGWDYATHWLRTFTERVKGAQFEKKTIRVINGRVNIHMLMHFNGREERIDLISVKIDGRWLIKSVHIHIE” registered a protease stability score of 0.208.

With “HETEQRLEHHIKLWFKAFMTGDEELLKFLADPNVRVDDDVNGVRFLNIGMEKLAEWLRKWLRRVPNVKFDLEDVKIFENRTHIDSRLDIDGKEIELHIHLILINGRIQEIRFSVK”, the protease stability score was 1.49.

For the sequence “HETKHLVDKFIELFKHNLETGDWDRLLELADPRTRVHVGDKTLIGMHEFRELHLRLIEKHGIKLNYYVHEVHVQGDKAHVDNEREEDYNGRVVSFRIRMHVEKFDGRWYLTRIEFN”, the protease stability score was determined as 1.33.

“HEVERIVEESDRHLLNSMLTGNEDELWRLLDPNARLDINGVQSIGRDEAYRVFHELLNHLRLREVDVHEMDVQGDKAHLTFKFNGDFNGKRDYLDFQVNSLKINGRWFLHSSSLI”: the protease stability score was 0.529.

In turn, “HEWERLHHEAMEHFLRLQETGNEKTLQELADPDARLHYNGKDYHGRESMLKFWIELGVDHIHLHDFRIQGDKMEIHMDDHQGDKRLHTIIIHRKVNGQWHLQSEKIH” had a protease stability score of 0.548.

“HEYEEEVTKAIEVLLHLLMTGDFDQMLHLADPNYRVDINGQEYIGREWFEVIRDKFKNVKIKDMHIDHVIFIGDKVIIHSREHRQQGDKERTFTVVLYSRKINGQWVHTSVKFS” registered a protease stability score of 1.59.

The sequence “HEYEEWSEIAMRLWILAERTGDERHIAHLLDPHVRYVFNGVEVIGMELITELVKRRWEQWRVHVEIEDRKFQGNFSKIEGHLRLHVGDKTEERRVEYRMDIVDGRIREISVIIE” had a protease stability score of 1.37.

In turn, “HHDEELSEHMAHNWLEALLTGDEDMLRELADPHVRYRFNGRQEIGWEHLLRFVNEIRIHELEPRHIQIDLVNGQVHVHIEGTIDGRIGDKDDRRRTTIVLNIRKINGKWILESISMEVE” gave a protease stability score of 1.68.

Sequence “HKEHRDAHELLERWLRSSVTGDEDTLSELLDPNVKIEIGNKHVHGREEVSRHFSERAHRIDHVRLHVDDLYIQGEKVHVDLTLEINVGDWRQTIKVEYVVLKVNGRWRIHTIHER” showed a protease stability score of 0.674.

For the sequence “HKLDEITKDMLEIFEKHSQTGDFQSLAKNVDPHARVDWDGRQFHGREDVQEVMIRLGVDHIEFKRIDIQGEWVHMDGQVYVNGRTTRTEFVSLKVNGRWYIHELRVR”, the protease stability score amounted to 0.875.

“HQDDDELKHFLELFIEQHETGDEHRLRKMADPRTRVEINGQEIHGMDQLVRHWLEFRKRMGVDHTHVILEHFHFQGDKVSARLRLIFIVGDKTFETDMNVIVVKVDGKWLIHEVSTR” came in with a protease stability score of 1.22.

In the case of “HQEDRLVFALAKDWIDNLETGDEDKMLQRADPRRQLIIDGRTFHGWENTYENMKQIRIEHLEIRDMTVVDGRIHINTHSILIINGRRFETETSIRLVVVNGVIQDVDININ”, the protease stability score stood at 0.081.

With “HRDEELSEEILRLILEILRTGDEDELRRLIDPHVRVSIGDKEKHGREWYLELVNVAGIKYIELKRIHVIGDKAHFETYVHVDGRDISLQFIILKINGKWFITSIRIETR”, the protease stability score is 1.4.

“HRVETEAHHMMKLLEHWLQTGDEEMWKTYADPDVRIDVDGKTLHGRDNFEHVLRMYGIKHRHIRDSHYHFIGDYLHYNLDVEVHFNGKDLKTHFTFQIRKVDGRWELERVHIRVH” came in with a protease stability score of 0.941.

With “HSDEEKSRRATKWFIKIFHTGDEDRFHELADPNTRVIIGDKDFIGREKAVDAIHRIWEHLGIDVYDVEDIRIINGVVEVDTSFHINGRTIKTTTRIEKVNGQWVVDEVHFK”, the protease stability score amounted to 1.23.

Take “HSLEKDAHEAFELFADTVRTGDEKLMQHLIDPNVRFDYNGVDLHGWKDVSRLMIELRIEDVRLTHVHVIGNKVHLDTRIHSHVNGRRIDTEMHVDIEKVNGRWVIRRIEHR”: the protease stability score is 1.47.

As to “IEQKEAWDEVYRIFVEAVRTGDWKSFERLLDPHTRIHFENREFHGREALEHDREKYKNMKLEHIEIKDQRVQGDKVIQFSHVVGNIDGRRLRFDIEIQFSKVDGVWTIELVIVR”, the protease stability score is 1.52.

In the case of “KDTKRALDELSELELHADETGDWRVKHELLDPHTRIVIGDKTIHGREDMLTLMKKLQEHWRLKTIEIHHTEVVDGRIDADTILVGIVDGVERELRVRLIILKINGRWIYTSIKFD”, the protease stability score stood at 1.14.

Take “KEDEELSSRFMLLMWHLMVTGNWKILEELADPNVRFIDEHHTLHGREEFVRTFKDWFDEIKNMKIHVRDSTVQGEKSNIHGELNFNGKRVDYTFIILFFNGRLHQIELRYH”: the protease stability score was -0.069.

“KEDEEYFREVTKNLLELIETGDFDMLTELLDPHMLLDVNGRTFHGWELAVEWYRQHVKKFGIDNIKVTLKHIHIQGNKIHLDVEVEIGDKTERREFVLTKINGRWRFDSVVVR” displayed a protease stability score of 2.19.

Turning to “KEDSEIAEDIIRLLNHASSTGDEETFTHLADPNVRIKIGDKESHGREEWSRTLTELRVEFKDMKIRDVDIQGEYVFVEGELRVEITVNGRTIEIHYESHFIMEKVNGRWHVHSVMML”, the protease stability score is 0.222.

“KEEEDIVRHVVEKFIKNLLTGDFHSLMHMADPNVLVNFNGKENIGRELAVKTIERWWKELGVKHFEHFDLHDITIFDGKASLDTRVHGEINGKVHDFKTRIIIQKINGRWTVHSVEFE” showed a protease stability score of 1.22.

Consider “KEEEEDLKKATEDMMHLLSTGDWDTIYRLADPNTRIEINGREEVGMDLYVDKSMEEFRRLGIDKIHIHLHSVTNVNGKIYIDTRYEFNGVKIRMHIVIEKINGRWLLRTLSVK”, for which the protease stability score came out at 1.52.

“KEEEEEARQAWDLLHNIMKTGDEHQLMSLVDPNYLNIAEGREFHGREVFYHYMHELRVKWEHMHLKDYRVYNGRIRTEEHLVVHYEYGDKHDSLRTDVHLKDVKINGRWRVRHLHII” had a protease stability score of 0.78.

Turning to “KEEEEFAKHILHMLRYLWETGDEEEFERMADPNARLIQGDKHFHGREEITKSVKELRVRHFEEKHIHYQGEKSLIIGHVDGEINGQRHEIDVIIRLEVVNGKLKRIRIEYR”, the protease stability score amounted to 0.239.

“KEEEEKLERLAELVIELFLTGDWKTLHSLLDPHYRSEIDGRTVHGRESHQTLLEEILRHLRIRRVHIEEYRIIDGVAWIDSRITLEINGRTVDTHMHIHLEFFNGRLHSIRVEIH” showed a protease stability score of 2.47.

Regarding “KEEEELVKKMLDLLVEAWETGDWKLLDHLLDPNVKLEVDGVLHIGREEAVRVMLEFHKRVDHVEVRDRDFRIQGEKVRHEVELRLHQGEFHVITRIEIEVTKVNGRWQMKHIRIE”, the protease stability score is 2.56.

As for “KEEETHAREVSEANEHLLETGDWRRLSHLLDPNAKITINGRHFHGREFFTELQKRHEDMLGIKHRHIEDSTVVGDKVIIHTYYHVDGKTLDIEIIIVVINGRHERVEWRFK”, the protease stability score came to 0.782.

The sequence “KEEEWLAREWLRLWFEAVMTGDEHRLNHMLDPHVRTIVGDYEDVGRERSSELFLEIRLDHMELTSLDVQGDYAHLEIRVDGTIDGKRIETEMRVTLNIVDGRFRTVEHRIS” showed a protease stability score of 0.755.

Sequence “KEHEEILHHLAELFFENLLTGDWRLLTELMDPSARVHIGEWRSHGREHASRVMLEEFRQLRVRDVKLTDLKVIDGRMEIDTRMRIEVDGREHIHTIHIRIYIYNGRMDEIHLEVR” returned a protease stability score of 0.125.

In turn, “KEHEKFVEDFARLLINIWTTGDEDLFNELADPHVRVNFNGVEHHGRENVIRYIERVLREIRIDHVQTRDWTVIDGVMHIEGHIHIHFDGRQRTHDVIFHIIIWNGKMKNVIVSFR” gave a protease stability score of 1.67.

For the sequence “KEHNDALELMYHWLIHLWKTGDERDIYELFDPNVRVDVNGRELHGMELVSHIELREMKRLGFKVIHIELTSVRYIGDKIEIDTIFHLHVGEYTERREHHILSYKVDGRWFVKESEVN”, the protease stability score was 1.18.
